Measurements: patent publication CN116926038A, “一种TrkA的抗原表位肽及其应用” (Guangdong HEC Pharmaceutical Co Ltd, priority 2022, dated 2023)
Ends that are not written are not given here.

Legend:
Human-TrKB = target: T1, Human-TrKB (Homo sapiens, UniProt Q16620); assay: ELISA binding of serum of peptide-immunised mice to Human-TrKB (Example 18); settings: serum dilutions 1:50 to 1:6400; blank serum as control
T1 construct: purchased Sino Biological 10047-H08H

Human-TrKC = target: T2, Human-TrKC (Homo sapiens, UniProt Q16288); assay: ELISA binding of serum of peptide-immunised mice to Human-TrKC (Example 18); settings: serum dilutions 1:50 to 1:6400; blank serum as control
T2 construct: purchased Sino Biological 10048-H08H
T2 sequence (Q16288 32-429 limits assumed): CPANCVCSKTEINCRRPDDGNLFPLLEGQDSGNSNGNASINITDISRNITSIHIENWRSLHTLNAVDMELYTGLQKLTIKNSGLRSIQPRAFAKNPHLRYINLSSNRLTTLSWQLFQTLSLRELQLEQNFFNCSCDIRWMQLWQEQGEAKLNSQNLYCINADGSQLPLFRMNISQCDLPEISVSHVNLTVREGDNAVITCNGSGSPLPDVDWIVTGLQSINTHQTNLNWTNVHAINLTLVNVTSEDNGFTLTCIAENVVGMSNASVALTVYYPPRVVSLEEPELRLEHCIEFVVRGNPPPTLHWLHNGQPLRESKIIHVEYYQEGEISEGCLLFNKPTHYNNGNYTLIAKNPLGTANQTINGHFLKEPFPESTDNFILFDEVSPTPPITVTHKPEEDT

Human-P75 = target: T3, Human-P75 (Homo sapiens, UniProt P08138); assay: ELISA binding of serum of peptide-immunised mice to Human-P75 (Example 18); settings: serum dilutions 1:50 to 1:6400; blank serum as control
T3 construct: purchased Sino Biological 13184-H08H
T3 sequence (P08138 29-250 limits assumed): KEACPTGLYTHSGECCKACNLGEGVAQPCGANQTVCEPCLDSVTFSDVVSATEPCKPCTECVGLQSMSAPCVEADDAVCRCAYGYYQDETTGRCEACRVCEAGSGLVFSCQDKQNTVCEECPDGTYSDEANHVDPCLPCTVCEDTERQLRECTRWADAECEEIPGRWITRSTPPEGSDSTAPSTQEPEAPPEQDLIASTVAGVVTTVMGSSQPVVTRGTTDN

[1] = target: binding of Human-TrKA receptor and its ligand Human-NGF (Human-TrKA受体与其配体Human-NGF结合) (Homo sapiens, UniProt P04629); assay: ELISA blocking of Human-TrKA/Human-NGF binding by serum of peptide-immunised rabbits (Example 19); settings: 300 μg each time
binding of Human-TrKA receptor and its ligand Human-NGF (Human-TrKA受体与其配体Human-NGF结合), sequence (P04629 33-796): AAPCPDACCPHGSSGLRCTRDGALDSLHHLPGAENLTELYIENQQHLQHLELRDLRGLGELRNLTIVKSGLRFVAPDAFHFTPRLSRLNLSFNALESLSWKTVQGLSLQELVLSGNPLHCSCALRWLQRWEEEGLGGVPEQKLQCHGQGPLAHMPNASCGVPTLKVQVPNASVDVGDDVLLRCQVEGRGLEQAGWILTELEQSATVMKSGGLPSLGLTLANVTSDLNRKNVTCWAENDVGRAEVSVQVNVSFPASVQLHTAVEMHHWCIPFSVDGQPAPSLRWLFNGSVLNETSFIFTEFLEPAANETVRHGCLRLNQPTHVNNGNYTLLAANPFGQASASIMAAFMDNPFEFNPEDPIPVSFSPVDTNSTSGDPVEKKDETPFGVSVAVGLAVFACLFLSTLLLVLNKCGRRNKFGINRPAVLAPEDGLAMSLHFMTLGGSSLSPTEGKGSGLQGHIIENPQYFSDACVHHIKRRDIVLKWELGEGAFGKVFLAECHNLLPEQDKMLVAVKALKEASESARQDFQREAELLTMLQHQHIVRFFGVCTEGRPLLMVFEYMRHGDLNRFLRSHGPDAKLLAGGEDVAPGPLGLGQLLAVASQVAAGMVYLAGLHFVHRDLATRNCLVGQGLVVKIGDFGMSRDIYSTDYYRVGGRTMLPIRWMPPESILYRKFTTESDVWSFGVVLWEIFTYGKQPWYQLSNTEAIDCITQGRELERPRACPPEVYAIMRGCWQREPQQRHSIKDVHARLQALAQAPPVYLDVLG

T1 sequence (Q16620 32-430 limits assumed): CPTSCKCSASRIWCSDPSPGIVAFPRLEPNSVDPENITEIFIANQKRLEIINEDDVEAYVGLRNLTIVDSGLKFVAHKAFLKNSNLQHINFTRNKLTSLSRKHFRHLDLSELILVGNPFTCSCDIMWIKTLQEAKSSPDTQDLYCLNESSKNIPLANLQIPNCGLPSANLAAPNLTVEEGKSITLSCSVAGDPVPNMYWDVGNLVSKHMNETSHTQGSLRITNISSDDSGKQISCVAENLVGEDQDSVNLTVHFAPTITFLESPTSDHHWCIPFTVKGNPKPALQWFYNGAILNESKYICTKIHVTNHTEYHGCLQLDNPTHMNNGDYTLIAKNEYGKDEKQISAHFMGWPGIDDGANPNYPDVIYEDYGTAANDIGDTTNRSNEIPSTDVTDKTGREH

## MAAFMDNPFEFNPED-C-KLH: 多肽MAAFMDNPFEFNPED-C-KLH (SEQ ID NO:18; 钥孔血蓝蛋白(KLH)) (not fully specified (C-terminus); also: KLH carrier conjugated via C-terminal Cys)
Human-TrKB
  binding of immunised mouse serum: 没有明显结合
Human-TrKC
  binding of immunised mouse serum: 没有明显结合
Human-P75
  binding of immunised mouse serum: 没有明显结合
[1]; immunised rabbit serum diluted 1:2
  Human-TrkA/Human-NGF binding signal (OD450) versus blank serum: 显著性降低
[1]; immunised rabbit serum, no dilution stated
  Human-TrkA/Human-NGF binding signal (OD450) versus blank serum: 显著性降低
